assay: soluble on expression in E. coli; label from the status in PepcDB or PDB records

Sequence	soluble on expression in E. coli
MDLKGGESMVDWKLMQEIIEAPGVSGYEHLGIRDIVVDVLKEVADEVKVDKLGNVIAHFKGSSPRIMVAAHMDKIGVMVNHIDKDGYLHIVPIGGVLPETLVAQRIRFFTEKGERYGVVGVLPPHLRRGQEDKGSKIDWDQIVVDVGASSKEEAEEMGFRVGTVGEFAPNFTRLNEHRFATPYLDDRICLYAMIEAARQLGDHEADIYIVGSVQEEVGLRGARVASYAINPEVGIAMDVTFAKQPHDKGKIVPELGKGPVMDVGPNINPKLRAFADEVAKKYEIPLQVEPSPRPTGTDANVMQINREGVATAVLSIPIRYMHSQVELADARDVDNTIKLAKALLEELKPMDFTP	soluble
MDLLSLKTVTTLSDCVTIAEQDQVKIVRVIHDKASAAISLHGGHVLSFQPKGQADLLWMSSQAIYDGKAALRGGIPVCWPWFGRIAAPAHGFARNQEWKLIEHREIEQGVIVTLGLQATPESLAIWPYQFDVRLHVEIRESLTVTLDVTNTDSKAWTFSGALHTYLHVGDIRETQTSGVGTEYIDSLQNSRLCTQHGLLTLTDTIDRVYTQPEPLITVQDPALARTLTVENQGHNSAVLWNPWQQGAQSMADMNDEGYLHFLCVESTLHAPSLAEGITLQPGQNHQLVTQITSQAQ	not soluble
MDLPVMPPVKPMLAKSVAKIPPGMHYEAKWDGFRAIVYRDGDEVELGSRTGKPLTRYFPELVVAVRERLPERCVVDGEIVIARDGHLDFDALTERIHPADSRVRTLAERTPASLVAFDLLALDDASLLDVGLADRRALLVRALSGVTPPVHVAPATDDIEVARRWFEQYEGAGLDGVVAKPLDLRYRQDERAMYKIKHERTADVVVAGYRFHKSGPVVGSLLLGLYDDRGLLQHVGVSAAFTMKRRAELVAELEPLRMDDARGHPWAAWAEEAAHESARLPGAPSRWSGKKDLSWVPLRPERVVEVAYDHMENGARFRHTARFRRWRPDRTPESCTYAQLEEPVRYDLAEILGGPLEHHHHHH	not soluble
MDLSQLTPRRPYLLRAFYEWLLDNQLTPHLVVDVTLPGVQVPMEYARDGQIVLNIAPRAVGNLELANDEVRFNARFGGIPRQVSVPLAAVLAIYARENGAGTMFEPEAAYDEDTSIMN	soluble
MDMERNRLYFFYKRDDKLIERVKPLIELAERGPFVVVDDYREANIIVSIGDDGAFLQAVRQTGFLPDRLYVGVSVLPARGFYCDFHIDDIDHMVEAAKNWKLEVRRYPIIEVTIDGAASFFCLNECSIRSQIIKTMAIDVFIDDLHFETFRGDGIIVSTPTGSTGYNKSVHGAVVDPLLPCFQVSELASLNSNRYRTLGSPFILSGSRTLTLKMSEETSHFPIIGLDNEALSIQHIERIDIRLSDRVVKTVRLKDNSFWDKVKRVFL	not soluble
MDMPVDPNEPTYCLCHQVSYGEMIGCDNPDCSIEWFHFACVGLTTKPRGKWFCPRCSQER	soluble
MDMTDMTTTGSATEAATAAASSTPLPTFGQSLTEQLTPILGDAETQQLASLIAHLPTIKGQTDEQSIALYVDTLTQLKEKNSVFSGAALSESASIWMRSLQRVSSNGKMDSAELATQMNNALASQFQTWFADQLTDKVDSSLPTQFVSQFQLGTESTQAQQIAKLSAEELKSATGDIASFVDDLARQMSSSVVRESASSFLRNAFAHLPSMNLAQLKASDFLLTEANFVTNVSTQLQNVFKQIGITLTKDVADELAKRITWTPGISKQQLSEVLSEMATQVKGQFTAAYGETAGTENLRKALDAIIKSSDSLTLSSLFANFAVSLIHTEIDAFYNDKAIADIQKTQISADQAELIKNNTERDIRFQFEKMLKGESTGASFIERYETLRKNL	not soluble
MDNKTYEISSAEWEVMNIIWMKKYASANNIIEEIQMQKDWSPKTIRTLITRLYKKGFIDRKKDNKIFQYYSLVEESDIKYKTSKNFINKVYKGGFNSLVLNFVEKEDLSQDEIEELRNILNKK	soluble
MDNLETDRLILINYTLEMIQATINGTEALEKTSGYHVSPDWPGIDFFFYLPYVLENVKKDDKMIKWTRLVVLKTENKIIGEIGGQGNPDETGEIEIGYSIVPDYQNKGYMSEALISMIDWLEHQPVINRIFARCYEQNEASIQVLKHNHFVHIKEKDTEEKQGRVMMWEYPIKQT	not soluble
MDNLKAELAQAKIDIDQLEKKQWETLEQLVMRDKLIEQCSLHTEILQKDFRESEARIIQLEQQLLEPGECGSELRATIKNQEELLKKQSEEIERCKEESRMLIQQKEEMENIHSEEIFGKNKTISNLRKQIDGDVERKKAKIRTLRKELCSADMNTGKMCRRAKRAEDRIAKLESDLEEERQKHVGQDISHILDQHNSTVMALEMQLANTQQEKATLNTSVEDLKLRTEEWKHNLLGQFEVLTANSKRECESKEEQIANHKREIMEKDSKIECLMELIQNSERSAEIQKMHDALREKDLKISELSEKLQGLLINQEGEADDTMIDQDDDNKSTHSEDSDGWDKINAI	not soluble
MDNLVDIDEDGTQEKLSVNSTPYQTQECVLYGSIFAKNVPDLERRLAGLCDPGCEEFFEHEMSFSLRSSGIMDIKTDIKLRRRFRTEHRIQNYWQLKYIGVPEPDQKCPTIVRKEISSLVHSQDMMTYAKSLGLRMDYEYMTQGKLWTKGNIKILHSILTSTSRAGTYDSNSIKSVSDSALVEISISLPESAEYMPAAKSLRDFADQLMPLVNMEKVDYWKKMFPAQAAPRR	soluble
MDPRGTKRGAEKTEVAEPRNKLPRPAPSLPTDPALYSGPFPFYRRPSELGCFSLDAQRQYHGDARALRYYSPPPTNGPGPNFDLRDGYPDRYQPRDEEVQERLDHLLCWLLEHRGRLEGGPGWLAEAIVTWRGHLTKLLTTPYERQEGWQLAASRFQGTLYLSEVETPNARAQRLARPPLLRELMYMGYKFEQYMCAGELPLLHSPLPLPRG	not soluble
MDPVFDFEDALDQTEMAQLAVDELKKIPEVNTLFAERWLPAPFNLDDLAKLPEGTLGHVYAIEMKARGFDPYFYKKVPVVDDISYLKMLWRSTHDIYHVVAGFDTDGIGEIGLQAFVLAQTPIPISVMLVSFGMVMTSLYQPAKFQDLMAEIARGYSLGSHTPRKLIAQKWDQFWDVPVIEIRECLGMNTVKQRERALEHHHHHH	soluble
MDQAHANAASLEASDLFDADWYLAEYPDVQSLQMPPAVHYLWLGARLGRNPSPRFSTRSYLDANPDVAQAGINPLLHFLLAGRDEGRSGTILAAPSRGSTETDVNASTFGEHRPYVFLPPADLDRIAAQWSKDSARPDAQGRGIAIFSAITGSYDSINHHEHLIPGADYLLFSDAPKPRYVYQPRQAPWFDCDTVRAARFIKTHPHMLLGGYRIAVWIDGNILIRGDLLPLVQRFEESGLAFGAVPHPLRQSVYAEAVECMKRGKDDEATIRRQMQRYRREEFDCEDLIESNLLMFRLGHPSLAPLLDTWWAQIESGSRRDQLSLNYALHKTGVEWLALTQRPHSVRDHPALALMHHRSQFNPAEPGVCLPRPRERTFAEVRAERIAAQSARRADVIVCVHNAPEMVARCLDSVRTGQNPDRHRIIIIDDGSGRDTAELVSRFAADTPNTVLIRNAVAGGYTRAANQGLKAMDADMAILLNSDTVVAPGWIEKLLDAAFSNPGVGIVGPMSSAASHQSIPEHQSRHDQTAINDLPPGWSAADMDAWCERMAPADFLPRVPLVHGFCFAVTREAVERIGYLDEDSFPDGYGEENDYCLRATDAGVGLAIATHTYVFHEKSQSYQSDRRISLMKRGNGKIRELHGDERVARAVRSMQQNPHLGRLRTAAARLFAVTTPETPALEHHHHHH	not soluble
MDQNTTPAPGLRETKKRETRQLISDHATRLFIERGFEHTTIAEIADAARVAKKTVTNYFPRKEDLALDHQDEFVAALAATVTARGAGETPLTALRHAFLAAVAAQDPVAGFAGQAFTRMIADSPTLTACLRGLHDRREEALTAALAGTTDTPPDDITPRTAAALLGGVHRVLFNRIQELTLAGRATPEIAEVLAREAPRAFDLLTPALAEYGRRP	not soluble
MDQVEIRTHTALHVVKGAVRKVLGAKWTASTYVNSNHGRLTVKFERKPSDQEMDKVFELANEKVRKNLPIIIEVLPREEAERKYGDEIYDLFLISAEVRELSIVVIPDWSINACNKQHTKFTSEIGEIIKDYWRYRNSKQLLEISFDIKC	soluble
MDRPSRITRFFMGIVSWAERLNLKYAKLGNPPVYDNATFPWSAEIEKEWPAIRKELDKILLRQSKLPSFQDISTDVKTISTDNRWKTFFLLGFGVKSEQNIKACPETWRIVNKIPGLTTAMFSIFEPGKHLPPHRGPYNGVLRLHLGLIVPEPNDHWRSAWTARSATGTKARCLEHHHHHH	not soluble
MDRRQKRLIFSTITSKMNLSEEVDLEDYVARPDKISGADINSICQESGMLAVRENRYIVLAKDFEKAYKTVIKKDEQEHEFYK	soluble
MDSARTFESIVIIFNPNSTGDAPELAQQLHGKLKELLTYQPEITLQPTEHAGHAVDLAREAASKGGDVLVVSVSGDGGYNEVVNGVMQADNPRAVAAVLAAGNANDHSRIIGTKPLEEAIAEGRVHNIDLLRIHTGQKENEPLEYAHSYIGFGLTPVVATELEKGSKGALKEMVTVIKSFSEFQPFAIRQSDGKRRKFDSLVFANINEMAKYATLSEAEDHPSDGKFEVIVFPHMPKWRVLLTALKATTQGLGDQPSVSSYEFTTLKPLPYQMDGEVKSVEANVKVTVESAPQALATLG	soluble
MDSKLIGKICKSIRYRDYETAIFLAACLLPCKPEYRMLMSIVLYLNGEYTRALFHLHKLNTCTSKYYESLCYKKKKDYKKAIKSLESILEGKVERDPDVDARIQEMFVDPGDEEFFESLLGDLCTLSGYREEGIGHYVRSFGKSFLFSPVENLLLENKVPQKRDKENVRQTGRRGIEEEYVSDSIEFHESLSPSLVKKYMEHVPGIGSYFISNAARRYFNLGMNDKSKACFELVRRKDPMFL	soluble
MDSNSTTSFLSNGYNHKETLKLIEDMKNSASNKGILLYVNSPGGGVYESDELYLKLKEYKEETGRPVWTYMSNQACSGGYYISMASDKVFSNRNAWTGSIGVIISLTNLKGLYDNLGIKGIYITSGRNKAMGAADLELTDEQRDILQSLVDEAYEQFVEIVAEGRKMTVEEVKRIADGRILSAKQALELNLIDEIATYDEVKEAFQRRAWKC	not soluble
MDSVCPQGKYIHPQNNSICCTKCHKGTYLYNDCPGPGQDTDCRECESGSFTASENHLRHCLSCSKCRKEMGQVEISSCTVDRDTVCGCRKNQYRHYWSENLFQCFNCSLCLNGTVHLSCQEKQNTVCTCHAGFFLRENECVSCSNCKKSLECTKLCLPQIEN	soluble

Reference: the DeepSol protein solubility set
